From the nanobody polyreactivity screen of Harvey et al. (2022)

Assay: yeast display, Sf9 membrane polyspecificity reagent, FACS + sequencing; frameworks hold sequencing errors
Summary of the method: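 Synthetic nanobody libraries on Saccharomyces cerevisiae BJ5465 were galactose-induced for 36–48 hours, stained 1 hour at 4 °C with 10% biotinylated, detergent-solubilized Sf9 membrane reagent and enriched on streptavidin microbeads. FACS then separated cells into low and high (top ~1%) gates by anti-HA (expression) and streptavidin (reagent binding) fluorescence. Genes were colony-PCR amplified, MiSeq 2 × 250 sequenced and CDR-length filtered. A clone's polyreactivity label is that of its gate of origin.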

Sequence	polyreactivity (PSR sort gate)
QVQRVESGGGLVQAGGSLRLSCAASGFTFVPYALGWYRPAPGQERELVAAISGSGGSTYYADSVKGRFTISRDNEKNTVYLQMNSLKPEDTAVYYCNADRRWAYYWGQGTQVTVSS	high polyreactivity
QVQLVETGGGLVQAGGSLRLSCAASGSIFLVYAMGWNRPAPGKQRQVVAAIRWSGGSTYYADSVKGRFTISRDNAKKTVYLQMNSLKPEDTAVYYCNAGESYSVKGGPYDSDYWGQGTQVTVSS	low polyreactivity
QVQLVESGGGLVQAGGSLRLSCAASGFTFTKYAMGWYRQAPGKERELVAAITSGTSTYYADSVKGRFTISRDNAKYTVYLQMNSLKPEVTAVYYCAAPLYGRYSYGYWGQCTQVTVSS	high polyreactivity
QVQLVESGGGLVQAGGSLRLSCAASGSIFYDNAMGWYRQAPGKERELVAAIDDSDRTYYADSEKGRFTISRDNAKNTVYLQMNSLKPEDTAVYYCARDRWKWHYGYDYWGQGTQVTVSS	low polyreactivity
QVQHVESGGGIVQAGGSLRLSCAASGIIFSDYAMGWYRQARGKERELVATITRSVRTSYADSVKGRFTISRDNAKNTVYLQMNSLKPEDTAVYYCYADVVGAVIAYDYWGQGTQVTVSS	low polyreactivity
QVQLVESGGGLVQAGGSLRLSCAASGSTYLINAMGWYRQAPGNERELVAAISDSGGSTHYADSVKGRFTISRDHAINTVYLHMKSLNPEDTAVYYCAATIPTTLILYGYWGQGTQVTVSS	low polyreactivity
QVQLVESGGGLVQAGGSLRLSCAASGFTFYKNTMGWYRQAHGTERELVAAISSSGSSTYYADSVKGRFTISRDNAKNTVYLQMNSLKPEDTAVYYCAAGRFAYHDDYWGQGTQVTVSS	high polyreactivity
QVQLVESGGGLVQAGGSLRLSCAASGITFYLNAMGWYRQAPGKERELVADITVSGGSTYYADSVKGRFTISRDTAKNTVYLQMNSLIPEDTAVYYCAADLTISYSQEYYYWGQGTQVTVSS	low polyreactivity
QVQLVESGGGLVQAGGSLRLSCAASGRTFPYNAMGWYRQAPGKEMELVAVISSSGGSTYYADSVKGRFTISRDNAKNTVYLQMNSLKPEDTAVYYCNTRPYYYRRPGYRYSGYDYWGQGTQVTVSS	high polyreactivity
QVQLVEAGRGLVHAGGSLRLSCDPSGLTFSRYAMGWYRPAPGKESELVPAISSRGGTTYYADSVKGRFTISRDYAKNTVYLQMYSMKPEDTAVYYCAAGYITWGSGNWVVTPYDVWGQGTQVTVSS	high polyreactivity
QVQLVESGGGLVQAGASLRLSCAASGYTLDNYAMGWYRQAPWKERELVAGITFSGGSTFYADSVKGRFTISRDNAKNTVYLQMNRLKPEDTAVYYCAAEAEFQADHKYGYWGQGTQVTVSS	low polyreactivity
QVQLVESGGGLVQAGGSLRLSCAASGRTFYRNAMGWYRQAPGKERELVAAIRGSGSSTYYADSVKGRFTISRDNAKNTVYLQMNSLKPEDTAVYYCAADYITYNGYARYYYWGQGTQVTVSS	high polyreactivity
QVQLVESGGGLVQAGGSLRLSCAASGRIFIWYAMGWYRQAPGKERELVAAIDRSGASTYYADSVKGRFTISRDNAKNTVYLQMNSLKPEDTAVYYCAARRDVLWFQYPYGYWGQGTQVTVSS	low polyreactivity
QVQLVESGGGLVQAGGSLRLSCAASGRTLHSYAMGWYRQAPGKERELVAAISGGASTYADSVKGRFTISRDNAMITVYFQMNSLKPEDTAVYYCAADDDPVPTYEYDVWGQGTQVTVSS	low polyreactivity
QVQLVESGGGLVQAGGSLRLSCAASGYTFYIYAMGWYRQAPGKERELVATISSSGGGTYYADSVKGRFTISRDNAKNTVYLQMNSLNPEDTAVYYCNADGWYWQAQGYDYWGQGTQVTVSS	low polyreactivity
QVQLVESGGGLVQAGGSLRLSCAASGSIFDGNAMGWYRKATGKERELVAAITNSGGSTYYADSVNGRFTISPENAMNSVYLQKNSLKPEDTAVYYCNALPFAWRRYRWLRTMYYWGQGTQVTVSS	low polyreactivity
QVQLVESGGGLVQAGGSLRLSCAASGRTFYGYAMGWYRQAPGKERELVASISRDGSTNDADSVKGRFTISRDNAKNTVYLQMNRLKPEDTEVYYCAADIWYYRYPIYYYSYDYWGQGTQVTVSS	low polyreactivity
QVQLVESGGGLVQAGGSLRLSCAASGYIFNLNAMGWYRQAPGKERELVAAITRSGGSTYYADSVKGRFTISRDNAKNTVYLQMNSQKPEDTAVYYCAARGPYYRPWYKYDYWGQGTQVTVSS	high polyreactivity
QVQLVESGGGLVQAGGSLRLSCAASGRTFFYNTMGWYRQAPGKERELVAAISYRGGRTYYADSVKGRFTISRDNAKNTVYLQMNSLKPEDTAVYYCNAYSYGHYYWGQGTQVTVSS	high polyreactivity
QVQLVESGGGLVQAGGSLRLSCAASGSIFERYAMGWYRQSPGKEREFVATITSGGGRTYYADSVKGRFTISRENAKNTVYLQMNSLKPEDTAVYYCGAASYRRQPFNYWGQGTQVTVSS	high polyreactivity
QVQLVESGGGLVQAGGSLRLSCAASGSTFGHYAMGWYRQAPGKERELVAAITWSGGSTYYADSVKGRFTISRDNAKNTVYLQMNSLKPEDTAVYYCNAVTRRSAQVGHDYWGQGTQVTVSS	high polyreactivity
QVQLVESGGGLVQAGGSLRLSCAASGYIFTRNAMGWYRQAPGKERELVATISSRGGRTYYADSVKGRFTISRDNAKNTVYLQMNSLKPEDTAVYYCAATPWYRTRTYDYWGQGTQVTVSS	high polyreactivity

Sequence	polyreactivity (PSR sort gate)
QVQLVESGGGLVQAGGSLRLSCAATGSIFYVNAMGWYRQAPGKERELVAVNADSVKGRFTISRDNAKNTVYLQMNSLKPEDTAVYYCAAGVNSTTRIYDYWGQGTQVTVSS	low polyreactivity
QVKLVESGGGLVQAGGSLRLSCAASGNTLYFNAMGWYRQAPGKERELVADISWGGGSTDYADSVKGRFTISRDNAKNTVYLQMNSLKPEDTAVYYCAADILSLPEYDYWGQGTQVTVSS	low polyreactivity
QVQLVESGGGLVQAGGSLRLSCAASGSIFYPYGMGWYRQAPGKEREFVAAISWSGGTTYYADSVKGRFTISRDNAKNTVYLQMNSLKKEDTGVYYCAAVSFYGVGGTWYNYWGKGTQVTVSS	high polyreactivity
QVQLVESGGGLVQAGGRLRFSCADSGITFLRYAIGWSRQAPGKERELVAGISYTGGSTNYADSVKGRFTISRDNAKNTVYLQMNSLKPEDSSVYYCAAQGYRWYDYWGQGTQVTVSS	high polyreactivity
QVQLVESGGGLVQAGGSLRLICAASGRIFYYYTMGWYRQAPGKERELVAAITRSGSSTYADSVKGRFTISRDNAKNTVYLQMNSLKPEDTAVYYCAADYIRRYDYWGQGTQVTVSS	low polyreactivity
QVQLVESGGGLVQAGGSLRLSCAASGLIFDDYAMGWYRQAPGKERELVAAISWSDGTTYYADSVKGRFTISRDNAKNTVYLQMNSLKTEDTAVYYCAAEEVSGWEYDYWGQGTQVTVSS	high polyreactivity
QVQLVESGGGLVQAGGSLRLSCAASGFTFGSNTMGWYRQAPGKERELVAAITTSGDSTYYADSVKGRFTISRDNAKNTVYLQMNCLKPEDTAVYYCAAERRYGRYYRLVRLLGQGTQVTVSS	high polyreactivity
QVQLVESGGGLVQAGGSLRLSCAASGRIYRGNTKGWYRQAPGKERELVAAITRGGSTSYADSVKGRFTISRDNAKNTVYLQMMSLKPEDTAVYYCATRTHGEGTRRDSWGQGTQVTVSS	low polyreactivity
QVQLVESGGGLVQAGGSLRLSCAASGSTFLTNAMGWYRQAPGKERELGAAITWSTGSTYYADSVKGRFTISRDNAKNTVYLQMNSLKPEDTAVYYCNARSEVSYWWGGYWGQGTQVTVSS	low polyreactivity
QVQLVESGGGLVQAGGSLRLSCAPSGRTFQQYAMGCYRQAPGKDREFVAAITFSGGTTYFADSVKGRFTISRDNAKNTVYFQMNSLKPEDTAVYYCAADIYYWSFYYSRYDYWGQGTQVTVSS	high polyreactivity
QVQLVESGGGLVQAGGRLRLSCAASGIIFGYYAMGWYREAPGKEREFVAAINYSGVSTYYADSVKGRLTISRDNAKNTVYLQMNSLKPEDTAVYYCAADFRIVVYGWGGSHMDYWGQGTQVTVSS	low polyreactivity
QVQLVESGGGLVQAGGSLRLSCAASGFISPQNTMGWYRQAPGKERELVAAITSGGSTYYADSVKGRFTISRDNAKNTVYLQMNSLKPEDTAVYYCAARPYGTWTYGYWGQGTQVTVSS	low polyreactivity
QVQLVESGGGLVQAGGSLRLSCAASGFTFPGYTMGRYRQAPGKERELVAAITWSGGRTYYADSVKGRFTITRDNAKNTVYLQMNSLKPEDTEVYYCAANFGAFYGNRDYWGQGTQVTVSS	high polyreactivity
QVQLVESGGALVQAGGSLRLSCAASGSTFRRYAMGRYRQAPGKERELVAAISYGGGTTYYADSVKGRFTISRDNAKNTVYLQMNSLKPEDTAVYYCAARGPYGYVLLYYWGQGTQVTVSS	high polyreactivity
QVQRVESGGGLVQAGGSLRLSCAASGITFRGYAMGWYRQAPGKERELVAAINSRGGSTYYADSVKGRFTISRDNAKNTVYLQMNSLKPEDTAVYYCATRSFGRMDYWGQGTQVTVSS	high polyreactivity
QVQLEESGGGLVQAGGSLRLSCAASGRTFNKNAMGWYRQAPGKERELVAAISYSGGRTYYADSVKGRFTISRDNAKNTVYLQMNSLKPEDTAVYYCAAWGSSYSFDYWGQGTQVTVSS	high polyreactivity
QVQLVESGGGLVQAGGSLRLSCAASGFIFEHYAMGWYRQAPGKEREMVARISWRGGSTYYADSVKGRFTISRDNAKNTVYLQMNSLKPEDTAVYYCNAQEVVYFGYYPSDYWGQGTQVTVSS	low polyreactivity
QVQLVESGGGLVQAGGSLRLSCAASGFIFVDYAMGWYRQAPGKERELVAAISSSGSTTYADSVKGRFTISRDNAKNIVYLQMNSLKPEDTAVYYCAAGLPRVLKDATFDYWGQGTQVTVSS	low polyreactivity
QVQLVESGGGLVQAGGSLRLSCAASGRTFKVYAMGWYRQAPGKERELVAAITGGGSTNYADSVKGRFTISRDNAKNTVYLQMNSLKPEDTAVYYCNARYYYRLVKWSRFSSYDYWGQGTQVTVSS	low polyreactivity
QVRLVESGGGLVQAGGSLRLSCAASGSTFVYYAMGRYRQAPGNERELVAAITSGDSTYYADSVKGRFTISRDNAKNTVYLQMNSLKPEDTAVYYCAKRISYLPVEMDYWGQGTQVSVSS	low polyreactivity
QVQLVESGGGLVQAGGSLRLSCAASGRTFPYYTMGWYRQAPGKERELVAAIDGSGDNTYYADSVKGRFTISRDYAKNTVYLQMNSLKPEDTAVYYCTAEQWGSLDYWGQGTQVTVSA	low polyreactivity
